Four molecules from US20170183388A1 (REGENTS OF THE UNIVERSITY OF COLORADO A BODY CORPORATE, published 2017) can be followed below.

In test [1] the target is T1, BioPure recombinant Aβ42 (UniProt P05067 672-713).
T1 construct: domain: Aβ(1-42); Recombinant peptide from AmideBio, coupled to AminoLink resin or to SPR chips by EDC-NHS; For treating neurons the peptide came from R Peptide or AmideBio; also called Aβ(1-42); amyloid β
Description: pull-down of whole brain synaptosome proteins on Aβ42 coupled to AminoLink resin, western blot [A]. On the technique in general: A western blot detects proteins with antibodies after separation by electrophoresis.

For test [2], the target named is T1, BioPure recombinant Aβ42. Nature of the test: Aβ42 coupled to AminoLink resin, mouse whole brain synaptosome extract, western blot.

T1 sequence (P05067 672-713 limits assumed): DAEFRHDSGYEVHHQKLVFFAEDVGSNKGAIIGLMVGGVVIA

B1: Mouse MAP2 (endogenous, from brain synaptosomes) (other, UniProt P20357 1-1828, looked up)
chain: MADERKDEGKAPHWTSASLTEAAAHPHSPEMKDQGGAGEGLSRNANGFPYREEEEGAFGEHRSQGTYSDTKENGINGELTSADRETAEEVSARIVQVVTAEAVAVLKGEQEKEAQHKDQPAALPLAAEETANLPPSPPPSPASEQTATVEEDLLTASKMEFPEQEKFPSSFAEPLDKGEMEFKMPSKPGEDFEHAALVPDTSKTPQDKKDLQGMEGEKLPPVPFAQTFGTNLEDRKQSTEPSIVMPSIGLSAEPPAPKEPKDWFIEMPTESKKDEWGLAAPISPGPLTPMREKDVLEDIPRWEGKQFDSPMPSPFHGGSFTLPLDTMKNERVSEGPRPFAPVFFQSDDKVSLQDPSALATSKESSKDEEPLKDKADKVADVSISEVTTLLGNVHSPVVEGYVGENISGEVKVTTDQEKKETSAPSVQEPTLTETEPQTKLDEKSTVSIEEAVAKKEESFKLRDDKTGVIQTSTEQSFSKEDQKGQEHTIDELKQDSFPISLEQAVTDAAMTSKTLGKVTSEPEAVSERREIQGLFEEKTADKNKLEGAGSATIAEVEMPFYEDKSGMSKYFETSALKEDMTRSTELGSDYYELSDSRGSAQESLDTISPKNQHDEKELQAKASQPSPPAQEAGYSTLAQSYTPDHPSELPEEPSSPQERMFTIDPKVYGEKRDLHSKNKDDLTLSRSLGLGGRSAIEQRSMSINLPMSCLDSIALGFNFGRGHDLSPLASDILTNTSGSMDEGDDYLPPTTPAVEKMPCFPIESKEEEDKAEQAKVTGGQTIQVETSSESPFPAKEYYKNGTVMAPDLPEMLDLAGTRSRLASVSADAEVARRKSVPSEAMLAESSTSLPPVADESPVTVKPDSQLEDMGYCVFNKYTVPLPSPVQDSENLSGESGSFYEGTDDKVRRDLATDLSLIEVKLAAAGRVKDEFTAEKEASPPTSADKSRLSREFDHDRKANDKLDTVLEKSEEHIDSKEHAKESEEMGGKVELFGLGITYDQASTKELITTKDTSPEKTEKGLSSVPEVAEVEPTTKADQGLDFAATKAEPSQLDIKVSDFGQMASGMNVDAGKAIELKFEVAQELTLSSEAPQEADSFMGVESGHIKEGGKVNETEVKEKVTKPDLVHQEAVDKEESYESSGEHESLTMESLKPDEGKKETSPETSLIQDEVALKLSVEIPCPPPVSEADLSTDEKGEVQMEFIQLPKEESTETPDIPAIPSDVTQPQPEAIVSEPAEVPSEEEEIEAGGEYDKLLFRSDTLQISDLLVSESREEFVETCPGELKGVVESVVTIEDDFITVVQTTTDEGESGSHSVRFAAPAQPEEERRPRPHDEELEIEMAAEAQAEPKDGSPDAPATPEKEEVAFSEYKTETYDDYKDETTIDDSIMDADSLWVDTQDDDRSILTEQLETIPKEERAEKDARRPSLEKHRKEKPFKTGRGRISTPERKVAKKEPSTVSRDEVRRKKAVYKKAELAKKSEVQAHSPSRKLILKPAIKYTRPTHLSCVKRKTTAASGDLAQAPGAFKQAKDKVTDGISKSPEKRSSLPRPSSILPPRRGVSGDREENSFSLNSSISSARRTTRSEPIRRAGKSGTSTPTTPGSTAITPGTPPSYSSRTPGTPGTPSYPRTPGTPKSGILVPSEKKVAIIRTPPKSPATPKQLRLINQPLPDLKNVKSKIGSTDNIKYQPKGGQVQIVTKKIDLSHVTSKCGSLKNIRHRPGGGRVKIESVKLDFKEKAQAKVGSLDNAHHVPGGGNVKIDSQKLNFREHAKARVDHGAEIITQSPSRSSVASPRRLSNVSSSGSINLLESPQLATLAEDVTAALAKQGL
notes: Loading control; also called loading control
Take B1: the binding result in test [1] was “no binding”.

B2: Mouse synaptogyrin1 (endogenous, from brain synaptosomes) (other, UniProt O55100 1-234, looked up)
chain: MEGGAYGAGKAGGAFDPYTLVRQPHTILRVVSWVFSIVVFGSIVNEGYLNNPEEEEEFCIYNRNPNACSYGVTVGVLAFLTCLLYLALDVYFPQISSVKDRKKAVLSDIGVSAFWAFFWFVGFCFLANQWQVSKPKDNPLNEGTDAARAAIAFSFFSIFTWAGQAVLAFQRYQIGADSALFSQDYMDPSQDSSMPYAPYVEPSAGSDPAGMGGTYQHPANAFDAEPQGYQSQGY
notes: SYP paralog, 22% identity as printed; also called SNG1; synaptogyrinl
In the case of B2, the binding result in test [1] is reported as “no binding”.

B3: Mouse synaptophysin (endogenous, from brain synaptosomes or cultured neurons) (other, UniProt Q62277 1-314, looked up)
chain: MLLLADMDVVNQLVAGGQFRVVKEPLGFVKVLQWVFAIFAFATCGSYTGELRLSVECANKTESALNIEVEFEYPFRLHQVYFDAPSCVKGGTTKIFLVGDYSSSAEFFVTVAVFAFLYSMGALATYIFLQNKYRENNKGPMMDFLATAVFAFMWLVSSSAWAKGLSDVKMATDPENIIKEMPMCRQTGNTCKELRDPVTSGLNTSVVFGFLNLVLWVGNLWFVFKETGWAAPFMRAPPGAPEKQPAPGDAYGDAGYGQGPGGYGPQDSYGPQGGYQPDYGQPASGGGGGYGPQGDYGQQGYGQQGAPTSFSNQM
notes: Endogenous protein detected by western blot; also called SYP; Syp
Take B3: the binding result in test [2] was “binds”.

B4: Mouse synaptoporin (endogenous, from brain synaptosomes) (other, UniProt Q8BGN8 1-265, looked up)
chain: MCMVIFAPLFAMFAFATCGGYSGGLRLSVDCVNKTESNLSIDIAFAYPFRLQQVTFEVPTCEGKEQQKLALVGDSSSSAEFFVTVAVFAFLYSLAATVVYIFFQNKYRENNRGPLIDFIVTVVFSFLWLVGSSAWAKGLSDVKVATDPKEVLLLMSACKQPSNKCMAVHSPVMSSLNTSVVFGFLNFILWAGNIWFVFKETGWHSSGQRYLSDPMEKHSSSYNQGRYNQESYGSSGGYSQQANLGPTSDEFGQQPSGPTSFNNQI
notes: SYP paralog, 62% identity as printed; also called SYNPR
As to B4, the binding result in test [1] is given as “no binding”.
